Laboratory results as given in patent US11813311B2, “Treatment and prevention of metabolic diseases” (Singapore Health Services PTE LTD., priority 2019, dated 2023).

Key:
WDF-fed mice = experiment: WDF NASH reversal model (Example 4); type: in vivo, mouse; conditions: WDF 16 weeks, then 10 mg/kg for 8 weeks on continued WDF
Method: FIGS. 21A to 21L. Inhibition of Il-11 signalling reverses NASH pathologies in preclinical models and HSC-to-myofibroblast transformation. (A) Schematic showing therapeutic dosing regime in NASH reversal experiment for data shown in (B-G). Mice were fed with WDF for 16 weeks to induce NASH and then treated with (10 mg/kg) X209 or IgG for 8 weeks while they were on continuous WDF feeding. (B) Total liver hydroxyproline content, the levels of (C) liver triglycerides, (D) serum ALT, (E), fasting blood glucose, (F) serum triglycerides, and (G) serum cholesterol in mice on NC and IgG- and X209-treated WDF (n≥5/group). (H) Schematic showing reversal experiment in which fibrosis was established by feeding mice HFMCD for 10 weeks and then replacing this with NC and initiating antibody (X203 and X209) therapy. Mice were euthanized at the indicated time points. (I) Total liver hydroxyproline content (dotted line represents the mean value of NC=0.93) and (J) relative mRNA expression of Mmp2/Timp1 at 1-, 3-, 6-weeks after concurrent metabolic intervention (diet switch) and X203, X209, or IgG treatment (n≥3/group). Quantification of ACTA2^+ve immunostaining (scale bars, 200 μm) following incubation (K) with TGFβ1 or (L) with PDGF, either prior to or after the addition of X203, X209, or IgG (n=5/group). (K-L) TGFβ1 (5 ng/ml), PDGF (20 ng/ml), IgG, X203 and, X209 (2 μg/ml). (B-G, K-L) Data are shown as box-and-whisker with median (middle line), 25th-75th percentiles (box) and min-max percentiles (whiskers); (I) data are shown as mean±s.d; (J) data are represented as line chart (mean) and transparencies indicate s.d. (B) Two-tailed Student's t-test (C-G,K-L) two-tailed, Tukey-corrected Student's t-test; (I-J) two-way ANOVA. FC: fold change; NC: normal chow; WDF: Western diet+15% (w/v) fructose; HFMCD: high fat methionine- and choline-deficient.
Ten week old male C57Bl/6J mice were fed Western diet (D12079B, Research Diets), supplemented with 15% weight/volume fructose in drinking water to mimic NAFLD/NASH like humans 17,18, whereas control mice received normal chow and tap water. Durations of diet and antibody therapies are described.
Mice were injected intraperitoneally with either antagonist anti-IL-11 antibody, antagonist anti-IL11RA antibody or an identical amount of IgG isotype control for the treatment durations outlined in the figures.
Mice were fasted for 6 h prior to blood collection (via tail snip) and Accu-Chek blood glucose meter was used to take fasting glucose measurements.

mouse Il11ra1 = target: T1, mouse Il11ra1 (Mus musculus, UniProt Q64385); experiment: Binding of X209 to mouse Il11ra1 (Octet); conditions: Octet system
T1 sequence (Q64385 24-432): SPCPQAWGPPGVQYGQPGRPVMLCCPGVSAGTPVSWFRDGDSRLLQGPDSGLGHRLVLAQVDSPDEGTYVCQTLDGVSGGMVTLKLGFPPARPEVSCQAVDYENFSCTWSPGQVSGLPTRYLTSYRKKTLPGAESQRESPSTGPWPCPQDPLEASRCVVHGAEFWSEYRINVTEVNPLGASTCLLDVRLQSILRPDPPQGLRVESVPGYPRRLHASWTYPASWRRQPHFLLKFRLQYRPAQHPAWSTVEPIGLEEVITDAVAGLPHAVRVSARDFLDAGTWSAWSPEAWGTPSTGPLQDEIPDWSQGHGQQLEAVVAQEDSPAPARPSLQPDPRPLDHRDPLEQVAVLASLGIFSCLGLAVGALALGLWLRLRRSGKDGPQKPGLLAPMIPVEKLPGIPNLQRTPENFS
Method: Binding of X209 to human IL11RA was measured on Biacore T200 (GE Healthcare). X209 was immobilized onto an anti-mouse capture chip. Interaction assays were performed with HEPES-buffered saline pH 7.4 containing 0.005% P20 and 0.5% BSA. A concentration range (1.56 nM to 100 nM) of the analyte (human IL11 RA) was injected over X209 and reference surfaces at a flow rate of 40 μl min^−1. Binding to mouse Il11ra1 was confirmed on Octet system (ForteBio) using a similar strategy. All sensograms were aligned and double-referenced^4. Affinity and kinetic constants were determined by fitting the corrected sensorgrams with 1:1 Langmuir model. The equilibrium binding constant KD was determined by the ratio of kd/ka.

ERK = ERK activation in HSCs (Western blot); type: cell-based, human; conditions: HSCs, antibody 2 μg/ml
Method: Western blots were carried out on total protein extracts from HSCs and liver tissues. Both cells and frozen tissues were homogenized in radioimmunoprecipitation assay (RIPA) buffer containing protease and phosphatase inhibitors (Thermo Scientifics), followed by centrifugation to clear the lysate. Protein concentrations were determined by Bradford assay (Bio-Rad). Equal amount of protein lysates were separated by SDS-PAGE, transferred to PVDF membrane, and subjected to immunoblot analysis for the indicated primary antibodies. Proteins were visualized using the ECL detection system (Pierce) with the appropriate secondary antibodies.

B1: X209: mouse anti-mouse IL-11Rα IgG (IgG1κ), neutralising; VH SEQ ID NO:24, VL SEQ ID NO:25 (antibody, V domains shown)
VH: QVQLQQPGAELVRPGSSVKLSCKASGYTFTNYWMHWLKQRPVQGLEWIGNIGPSDSKTHYNQKFKDKATLTVDKSSSTAYMQLNSLTSEDSAVYYCARGDYVLFTYWGQGTLVTVSA
VL: DIVLTQSPATLSLSPGERATLSCRASQSISNNLHWYQQKSHEAPRLLIKYASQSISGIPARFSGSGSGTDFTLSFSSLETEDFAVYFCQQSYSWPLTFGQGTKLEIK
modifications: Enx209 VH; Enx209 VL
- hepatic Erk activation (WDF-fed mice): inhibited
- liver fibrosis (WDF-fed mice): reversal
- liver inflammation (WDF-fed mice): reversal
- liver steatosis (WDF-fed mice): reversal
- serum ALT levels (WDF-fed mice): reduction
- serum cholesterol levels (WDF-fed mice): reduction
- serum glucose (WDF-fed mice): reduction
- serum triglycerides (WDF-fed mice): reduction
- Binding to mouse Il11ra1 (mouse Il11ra1): confirmed
- ERK phosphorylation downstream of all factors, including IL-11 (ERK): abolished
